Reference: US20160304608A1 (published 2016)

Assays:
[1] = molecular target: T1, human FcRn (hFcRn) (human, UniProt P55899 24-297; P16213 21-119, limits assumed); assay: SPR (Biacore 3000), antibody amine-coupled on CM5, hFcRn analyte, pH 6.0, 25 C, 1:1 model
T1 construct: hFcRn was the soluble analyte in SPR; also called FcRn analyte
Protocol: SPR measurements were performed using a Biacore 3000. […] The sensor chip surface was regenerated with a 30 sec pulse of 10 mM glycine pH 1.5 at a flow rate of […] followed by a 15 second pulse of buffer. Measurements were performed at 25° C. using HBS-P as the running buffer. The reference flow cell was activated and blocked in a mock amine coupling reaction. The data was fit to a 1:1 binding model using Biaevalution v.4.1 software.

[2] = molecular target: T1, human FcRn (hFcRn); assay: SPR (Biacore 3000), antibody amine-coupled on CM5, hFcRn analyte, pH 7.5, 25 C, 1:1 model

T1 sequence (P55899 24-297 limits assumed, chain 1 of 2): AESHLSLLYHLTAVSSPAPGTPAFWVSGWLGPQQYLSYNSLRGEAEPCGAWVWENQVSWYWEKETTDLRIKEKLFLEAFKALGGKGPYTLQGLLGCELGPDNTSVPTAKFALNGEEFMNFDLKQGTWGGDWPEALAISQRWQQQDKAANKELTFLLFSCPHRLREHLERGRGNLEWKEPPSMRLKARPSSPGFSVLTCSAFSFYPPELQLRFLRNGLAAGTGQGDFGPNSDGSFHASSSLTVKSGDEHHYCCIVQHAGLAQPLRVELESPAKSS
T1 sequence (P16213 21-119 limits assumed, chain 2 of 2): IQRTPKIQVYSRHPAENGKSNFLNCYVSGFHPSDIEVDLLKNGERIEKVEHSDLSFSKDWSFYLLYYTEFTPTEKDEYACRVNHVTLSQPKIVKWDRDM

Binder	Kd [1] [nM]	Kd [2] [nM]	kon [2] [M⁻¹ s⁻¹]	koff [1] [s⁻¹]	kon [1] [M⁻¹ s⁻¹]	koff [2] [s⁻¹]
532A-X54-B03 (cys to ala mutant of DX-2504) (antibody, V domains shown, also called 532-X54-B03; 532A-X53-B03) VH: EVQLLESGGGLVQPGGSLRLSCAASGFTFSEYAMGWVRQAPGKGLEWVSSIGSSGGQTKYADSVKGRFTISRDNSKNTLYLQMNSLRAEDTAVYYCARLAIGDSYWGQGTMVTVSS VL: QSALTQPASVSGSPGQSITISCTGTGSDVGSYNLVSWYQQHPGKAPKLMIYGDSQRPSGVSNRFSGSKSGNTASLTISGLQAEDEADYYCASYAGSGIYVFGTGTKVTVL	1.8	2	110000			
532A-X53-C02 (cys to ser mutant of DX-2504) (antibody, V domains shown, also called C54-C02) VH: EVQLLESGGGLVQPGGSLRLSCAASGFTFSEYAMGWVRQAPGKGLEWVSSIGSSGGQTKYADSVKGRFTISRDNSKNTLYLQMNSLRAEDTAVYYCARLAIGDSYWGQGTMVTVSS VL: QSALTQPASVSGSPGQSITISCTGTGSDVGSYNLVSWYQQHPGKAPKLMIYGDSQRPSGVSNRFSGSKSGNTASLTISGLQAEDEADYYCSSYAGSGIYVFGTGTKVTVL	1.4	1.7	190000	0.00043	310000	0.00032
DX-2504 anti-FcRn antibody (antibody, human IgG1, lambda, It was immobilized by amine coupling in the SPR assay) heavy: not shown light: QSALTQPASVSGSPGQSITISCTGTGSDVGSYNLVSWYQQHPGKAPKLMIYGDSQRPSGVSNRFSGSKSGNTASLTISGLQAEDEADYYCCSYAGSGIYVFGTGTKVTVLGQPKANPTVTLFPPSSEELQANKATLVCLISDFYPGAVTVAWKADGSPVKAGVETTKPSKQSNNKYAASSYLSLTPEQWKSHRSYSCQVTHEGSTVEKTVAPTECS	1.5	1.9	150000	0.00035	240000	0.00028
